Data published in patent publication US20260209359A1 (NEXTERA, published 2026).

What was measured:
[1] = target: T1, HLA-A*02:01/MAGE-A4^230-239 displayed on cells (MAGE-A4^230-239 pulsed T2 cells; NCI-H1703, A375, THP1, … (human, UniProt P04439 25-365 at identity 0.94); P61769 21-119); test: cell-based or functional assay
[2] = target: T2, HLA-A*02:01/MAGE-A4^230-239, soluble recombinant biotinylated pHLA (human, UniProt P04439 25-299 at identity 0.94); P61769 21-119, biotinylated); test: ELISA, soluble biotinylated pHLA on neutravidin, scDb, protL-HRP
T2 construct: Empty biotinylated HLA-A2 monomers (Tetramer Shop) loaded with synthetic peptide; also called MAGE-A4 pMHC; MAGE-A4-pHLA
Method: ELISA plates were coated with 5 μg/mL NeutrAvidin in PBS and incubated 16 h/4° C. (step (a)) and blocked with 5% skim milk powder in PBST for 1 h/room temperature (RT) (step (c)). […] Bound phage particles were detected with an anti-Fd antibody (anti-M13-HRP (Amersham Biosciences)), whereas bound IgG1 and scDb was detected with HRP conjugated protein L (Genscript) (step (i)). […] Plates were developed with TMB solution and read at 450 nm using a microplate reader (step (k)). Between each layer, the plates were washed 3× with PBST (steps (b), (d), (f), (h), and (j)).

[3] = target: T1, HLA-A*02:01/MAGE-A4^230-239 displayed …; test: cell-based or functional assay; remark: listed apart in the source

B1: AMC1 scDb (bispecific antibody)
chain: DIRLTQSPSSLSASVGDRVTMTCRASQTVATYVNWYQQKPGRAPKLLMYVTSIRQSEVPSRFSGDGFGTDFTLTINPLQPDDFATYYCQQAYSTPVTFGQGTKLEIKGGGGSEVQLQQSGPELVKPGASMKISCKASGYSFTGYTMNWVKQSHGKNLEWMGLINPYKGVSTYNQKFKDKATLTVDKSSSTAYMELLSLTSEDSAVYYCARSGYYGDSDWYFDVWGAGTTVTVSSGGGGSGGGGSGGGGSDIQMTQTTSSLSASLGDRVTISCRASQDIRNYLNWYQQKPDGTVKLLIYYTSRLHSGVPSKFSGSGSGTDYSLTISNLEQEDIATYFCQQGNTLPWTFAGGTKLEIKGGGGSQVQLVQSGAEVKKPGASVKVSCKVSGPKLYEVSMHWVRQAPGKGLEWMGGFDPEDGETIYAQKFQGRVTMTEDTSTDTAYMELSSLRSEDTAVYYCATDQGASWGFYWGQGTLVTVSS
notes: as m68
B1 was tested, and the “IFNγ EC50 vs. target positive cells (pM)” value [1] was 3.6 pM and the EC50 [2] was 0.45 nM.

B2: AMC6 scDb (bispecific antibody)
chain: DIRLTQSPSSLSASVGDRVTMTCRASQTVATYVNWYQQKPGRAPKLLMYVTSIRQSEVPSRFSGDGFGTDFTLTINPLQPDDFATYYCQQAYSTPVTFGQGTKLEIKGGGGSEVQLQQSGPELVKPGASMKISCKASGYSFTGYTMNWVKQSHGKNLEWMGLINPYKGVSTYNQKFKDKATLTVDKSSSTAYMELLSLTSEDSAVYYCARSGYYGDSDWYFDVWGAGTTVTVSSGGGGSGGGGSGGGGSDIQMTQTTSSLSASLGDRVTISCRASQDIRNYLNWYQQKPDGTVKLLIYYTSRLHSGVPSKFSGSGSGTDYSLTISNLEQEDIATYFCQQGNTLPWTFAGGTKLEIKGGGGSQVQLVQSGAEVKKPGASVKVSCKVSGPKLYEVSMHWVRQAPGKGLEWMGGFDPEDGETIYAQKFQGRVTMTEDTSTDTAYMELSSLRSEDTAVYYCATDQGSSWGFYWGQGTLVTVSS
notes: as m68
For B2, the “IFNγ EC50 vs. target positive cells (pM)” value [1] was 8.6 pM and the EC50 [2] was 0.61 nM.

B3: AM1 scDb (bispecific antibody)
chain: DIRVTQSPSSLSASVGDRVTITCRADVHIYWYLNWYQQKPGKAPKLLIYAASSLQSGVPSRFSGSGSGTDFTLTISSLQPEDFATYYCQQSYSTPYTFGQGTKLEIKGGGGSEVQLQQSGPELVKPGASMKISCKASGYSFTGYTMNWVKQSHGKNLEWMGLINPYKGVSTYNQKFKDKATLTVDKSSSTAYMELLSLTSEDSAVYYCARSGYYGDSDWYFDVWGAGTTVTVSSGGGGSGGGGSGGGGSDIQMTQTTSSLSASLGDRVTISCRASQDIRNYLNWYQQKPDGTVKLLIYYTSRLHSGVPSKFSGSGSGTDYSLTISNLEQEDIATYFCQQGNTLPWTFAGGTKLEIKGGGGSQVQLVQSGAEVKKPGASVKVSCKVSGYTLTELSMHWVRQAPGKGLEWMGGFDPEDGETIYAQKFQGRVTMTEDTSTDTAYMELSSLRSEDTAVYYCATDQGSSWGFYWGQGTLVTVSS
notes: VLA-VHB-VLB-VHA, anti-CD3 UCHT1
With B3 the “EC50 vs. NCI-H1703 (pM), T-cell specific killing” value [3] was 6.4 pM, the “IFNγ EC50 vs. target positive cells (pM)” value [1] was 11.8 pM and the EC50 [2] was 0.36 nM.

B4: AMC7 scDb (bispecific antibody)
chain: DIRVTQSPSSLSASVGDRVTITCRASQNIMWYLNWYQQKPGKAPKLLIYAASSLQSGVPSRFSGSGSGTDFTLTISSLQPEDFATYYCQQSYSTPYTFGQGTKLEIKGGGGSEVQLQQSGPELVKPGASMKISCKASGYSFTGYTMNWVKQSHGKNLEWMGLINPYKGVSTYNQKFKDKATLTVDKSSSTAYMELLSLTSEDSAVYYCARSGYYGDSDWYFDVWGAGTTVTVSSGGGGSGGGGSGGGGSDIQMTQTTSSLSASLGDRVTISCRASQDIRNYLNWYQQKPDGTVKLLIYYTSRLHSGVPSKFSGSGSGTDYSLTISNLEQEDIATYFCQQGNTLPWTFAGGTKLEIKGGGGSQVQLVQSGAEVKKPGASVKVSCKVSGPKLYEVSMHWVRQAPGKGLEWMGGFDPEDGETIYAQKFQGRVTMTEDTSTDTAYMELSSLRSEDTAVYYCATDQGSSWGFYWGQGTLVTVSS
notes: as m68
In the case of B4, the “IFNγ EC50 vs. target positive cells (pM)” value [1] is reported as 8.5 pM and the EC50 [2] is reported as 0.41 nM.

B5: AMC3 scDb (bispecific antibody)
chain: DIRVTQSPSSLSASVGDRVTITCRASQNIMWYLNWYQQKPGKAPKLLIYAASSLQSGVPSRFSGSGSGTDFTLTISSLQPEDFATYYCQQSYSTPYTFGQGTKLEIKGGGGSEVQLQQSGPELVKPGASMKISCKASGYSFTGYTMNWVKQSHGKNLEWMGLINPYKGVSTYNQKFKDKATLTVDKSSSTAYMELLSLTSEDSAVYYCARSGYYGDSDWYFDVWGAGTTVTVSSGGGGSGGGGSGGGGSDIQMTQTTSSLSASLGDRVTISCRASQDIRNYLNWYQQKPDGTVKLLIYYTSRLHSGVPSKFSGSGSGTDYSLTISNLEQEDIATYFCQQGNTLPWTFAGGTKLEIKGGGGSQVQLVQSGAEVKKPGASVKVSCKVSGPKLYEVSMHWVRQAPGKGLEWMGGFDPEDGETIYAQKFQGRVTMTEDTSTDTAYMELSSLRSEDTAVYYCATDQGASWGFYWGQGTLVTVSS
notes: as m68
B5 was tested, and the “IFNγ EC50 vs. target positive cells (pM)” value [1] was 7.3 pM and the EC50 [2] was 0.35 nM.

B6: AMC10 scDb (bispecific antibody)
chain: DIQLTQSPSSLSASVGDRVTITCRASQNIMWYLNWYQQKPGKAPKLLIYAASGLQSGVPSRFSGSGSGTDFTLTISSLQPEDFATYYCQQSYSTPFTFGPGTKVDIKGGGGSEVQLQQSGPELVKPGASMKISCKASGYSFTGYTMNWVKQSHGKNLEWMGLINPYKGVSTYNQKFKDKATLTVDKSSSTAYMELLSLTSEDSAVYYCARSGYYGDSDWYFDVWGAGTTVTVSSGGGGSGGGGSGGGGSDIQMTQTTSSLSASLGDRVTISCRASQDIRNYLNWYQQKPDGTVKLLIYYTSRLHSGVPSKFSGSGSGTDYSLTISNLEQEDIATYFCQQGNTLPWTFAGGTKLEIKGGGGSQVQLVQSGAEVKKPGASVKVSCKVSGYTLTELSMHWVRQAPGKGLEWMGGFDPEDGETIYAQKFQGRVTMTEDTSTDTAYMELSSLRSEDTAVYYCATDQGSSWGFYWGQGTLVTVSS
notes: as m68
For B6, the “IFNγ EC50 vs. target positive cells (pM)” value [1] was 1.7 pM and the EC50 [2] was 0.46 nM.

B7: AMC5 scDb (bispecific antibody)
chain: DIRVTQSPSSLSASVGDRVTITCRADIDIRWYLNWYQQKPGKAPKLLIYAASSLQSGVPSRFSGSGSGTDFTLTISSLQPEDFATYYCQQSYSTPYTFGQGTKLEIKGGGGSEVQLQQSGPELVKPGASMKISCKASGYSFTGYTMNWVKQSHGKNLEWMGLINPYKGVSTYNQKFKDKATLTVDKSSSTAYMELLSLTSEDSAVYYCARSGYYGDSDWYFDVWGAGTTVTVSSGGGGSGGGGSGGGGSDIQMTQTTSSLSASLGDRVTISCRASQDIRNYLNWYQQKPDGTVKLLIYYTSRLHSGVPSKFSGSGSGTDYSLTISNLEQEDIATYFCQQGNTLPWTFAGGTKLEIKGGGGSQVQLVQSGAEVKKPGASVKVSCKVSGPKLYEVSMHWVRQAPGKGLEWMGGFDPEDGETIYAQKFQGRVTMTEDTSTDTAYMELSSLRSEDTAVYYCATDQGASWGFYWGQGTLVTVSS
notes: as m68
B7 was tested, and the “IFNγ EC50 vs. target positive cells (pM)” value [1] was 8 pM and the EC50 [2] was 0.32 nM.

B8: AMC4 scDb (bispecific antibody)
chain: DIRVTQSPSSLSASVGDRVTITCRADHHIFWYLNWYQQKPGKAPKLLIYAASSLQSGVPSRFSGSGSGTDFTLTISSLQPEDFATYYCQQSYSTPYTFGQGTKLEIKGGGGSEVQLQQSGPELVKPGASMKISCKASGYSFTGYTMNWVKQSHGKNLEWMGLINPYKGVSTYNQKFKDKATLTVDKSSSTAYMELLSLTSEDSAVYYCARSGYYGDSDWYFDVWGAGTTVTVSSGGGGSGGGGSGGGGSDIQMTQTTSSLSASLGDRVTISCRASQDIRNYLNWYQQKPDGTVKLLIYYTSRLHSGVPSKFSGSGSGTDYSLTISNLEQEDIATYFCQQGNTLPWTFAGGTKLEIKGGGGSQVQLVQSGAEVKKPGASVKVSCKVSGPKLYEVSMHWVRQAPGKGLEWMGGFDPEDGETIYAQKFQGRVTMTEDTSTDTAYMELSSLRSEDTAVYYCATDQGASWGFYWGQGTLVTVSS
notes: as m68
In the case of B8, the “IFNγ EC50 vs. target positive cells (pM)” value [1] is reported as 9.2 pM and the EC50 [2] is reported as 0.36 nM.

B9: AMC14 scDb (bispecific antibody)
chain: DIRVTQSPSSLSASVGDRVTITCRASQNIMWYLNWYQQKPGKAPKLLIYAASSLQSGVPSRFSGSGSGTDFTLTISSLQPEDFATYYCQQAYRIPYTFGQGTKLEIKGGGGSEVQLQQSGPELVKPGASMKISCKASGYSFTGYTMNWVKQSHGKNLEWMGLINPYKGVSTYNQKFKDKATLTVDKSSSTAYMELLSLTSEDSAVYYCARSGYYGDSDWYFDVWGAGTTVTVSSGGGGSGGGGSGGGGSDIQMTQTTSSLSASLGDRVTISCRASQDIRNYLNWYQQKPDGTVKLLIYYTSRLHSGVPSKFSGSGSGTDYSLTISNLEQEDIATYFCQQGNTLPWTFAGGTKLEIKGGGGSQVQLVQSGAEVKKPGASVKVSCKVSGPKLYEVSMHWVRQAPGKGLEWMGGFDPEDGETIYAQKFQGRVTMTEDTSTDTAYMELSSLRSEDTAVYYCATDQGSSWGFYWGQGTLVTVSS
notes: as m68
For B9, the “IFNγ EC50 vs. target positive cells (pM)” value [1] was 8.2 pM and the EC50 [2] was 0.47 nM.

B10: AMC12 scDb (bispecific antibody)
chain: DIRVTQSPSSLSASVGDRVTITCRASQNIMWYLNWYQQKPGKAPKLLIYAASSLQSGVPSRFSGSGSGTDFTLTISSLQPEDFATYYCQQAYRIPYTFGQGTKLEIKGGGGSEVQLQQSGPELVKPGASMKISCKASGYSFTGYTMNWVKQSHGKNLEWMGLINPYKGVSTYNQKFKDKATLTVDKSSSTAYMELLSLTSEDSAVYYCARSGYYGDSDWYFDVWGAGTTVTVSSGGGGSGGGGSGGGGSDIQMTQTTSSLSASLGDRVTISCRASQDIRNYLNWYQQKPDGTVKLLIYYTSRLHSGVPSKFSGSGSGTDYSLTISNLEQEDIATYFCQQGNTLPWTFAGGTKLEIKGGGGSQVQLVQSGAEVKKPGASVKVSCKVSGPKLYEVSMHWVRQAPGKGLEWMGGFDPEDGETIYAQKFQGRVTMTEDTSTDTAYMELSSLRSEDTAVYYCATDQGASWGFYWGQGTLVTVSS
notes: as m68
For B10, the “IFNγ EC50 vs. target positive cells (pM)” value [1] was 6.9 pM and the EC50 [2] was 0.25 nM.
